A short description of this data set: label from the status in PepcDB records.
Regarding “ASVVLDFLTSDDFPAVAELGAAIWHKHFIGMISREQIDYMVSSRYTPQRLGRYLDAPDRWFRLLRVDGRPVGYCSYALTGQPGEMKLEQLYLLEEMRGWGLGGRMMDEAEAAARALGCATLMLTVNRHNAGAIAVYQKRGFAVREEVVADIGNGFVMDDYMMEKLLSR”, the protein production entry is “failed”.

With “ATEEFIIRIPPYHYIHVLDQNSNVSRVEVGPKTYIRQDNERVLFAPMRMVTVPPRHYCTVANPVSRDAQGLVLFDVTGQVRLRHADLEIRLAQDPFPLYPGEVLEKDITP”, the protein production result is recorded as “failed”.

As for “ATHTLQLAIGDEPTEGFDPMLGWSHGSYLLLHSPLLKQNEDFSWDSLLLSQYQPSDDGKTWLLTLKPDLKFSDGSPLTAKDVAFTYNNAAASGGKVDMGNFLSAEVIDPLNVRIHLKAPQSTFVNVLGSLGIVSADKYNAKTYAQKPIGAGPYRLVSFQPGQQMIVEANPYYAGNKNDFDKLIFVFLDEDSAFAAAQSGQLGVVRIPPSMAVGSVNNMKLWVRPSVENRGIVFPTTPAGKKDAHGYPIGNDVTADVAIRRAINYAINRQLLADQIMEGHAIPAYTGVQGLPWNNPDSAIKDGDIDKAKQILEQAGWQLNSQGTREKNGLPAKITLWYTSGDTTRRDLAQALRSMLKPIGIDVDLKSGSWETVERNMHANPTLFGWGSLDPMELYHHYSSNAAGVEYYNPGYYKNPMVDKHLQQALDAPTWQQAVPFWQQVDWDGTTGAGIRGDAAWAWLLNIQHTYLANNCVDLGKGTPEIHGSWSLLNSIDSWK”, the protein production result is listed as “not failed”.

On to “AVSGLYSSSDDVIELTPSNFNREVIQSDGLWLVEFYAPWCGHCQRLTPEWKKAATALKDVVKVGAVNADKHQSLGGQYGVQGFPTIKIFGANKNKPEDYQGGRTGEAIVDAALSALR”, for which the protein production entry is “not failed”.

Take “AYQPIRYRETGKVGELTFEFYNGAMSTEQCQRLVSALRWAKARDTQVLLVRGGRGAFSNGVHLNVIQAAEVPGLEAWANIQAIDDVCLELLTARQLVVSGLTGNAGAGGLMLALAADVVLARADTVYNPHYKSMGLYGSEYWTYSLPRAVGQAMAKQLTEACLPISALQALQMGMVQEIGPRC”: the protein production result is “failed”.

“CSGKEALDYFKEDPQMFDMYHTGYQQQMSNWPELPVNSIINWLLSNSSSLVVADFGCGDARIAKSVKNKVFSFDLVSKNPSVIACDMSNTSLESSSVDVAVFCLSLMGTNYSSYIKEAHRVLRPSGMLLIAEVKSRFDPNNGGADPKDFVKAVCDLGFTSVLKDFSNKMFILFHFKKK”: the protein production entry was “failed”.

Regarding “DDDIEQLLEFMHQLPAFANMTMSVRRELCSVMIFEVVEQAGAIILEDGQELDSWYVILNGTVEISHPDGKVENLFMGNSFGITPTLDKQYMHGIVRTKVDDCQFVCIAQQDYWRILNHVEK”, the protein production result is recorded as “not failed”.

Turning to “DDFETSLTELEPLEKDAYIVRLVFAGSTTTEPIVSSLSTAYDIKINILEANIKNTKNGTVGFLVLHIPYISSVDFGKFEKELIERQVKMEVLRHG”, the protein production entry was “not failed”.

Turning to “DDSLGEAVTTRAEALTIPAVLRARNLLSTTVARTPLVCDGTLPPFVPVAAPPGAATMQTPFHRMLATADDLLFNGVACWALDRDESGTCIGAIHIPLDTWQIEENTVRVNGKAVDPMEVCIFVGIHGGLLTHASETFTDARNLVRAAARVAQNPAALIELRQTNNAQLSPDDVDRIINGYVAARRGRNSGVGFSSSGLEVHEHEMAKENLLIEGRNAAAVDVARAMNVPAAFIDATVGGTSLSYQNAASRMIELVTFGVEPLMSAIEARLNQPDMHADHLANPLKFDPAALLDAIPTTPTIG”, the protein production entry is “not failed”.

Consider “DDSSDPKTSKSATSSEASSAAEAAPAELPTAEELNAILAVATDPAAPVEQKVATVQGGETAPELFETMTASKQESGANFQ”, for which the protein production entry is “failed”.

Take “DDVTLLTVPGWGNSGDTHWHGYWEKTYPLARRAEQRDWLYPTRDEWVAGLAAAVAEIPGKLVIAAHSLGCHTTVAWLLQATLLEQRKVKGALLVAPPAIPLTDERARASGELPEGAPLPTFAGFETLPERKLPVPALLVASRDDPFCEFEEARRMAELWGAEFVDGGMAGHMGSHAGLGSWPAGQRLLQRLI”: the protein production result was “failed”.

With “DEKGNIVDGDQIMYICSKHLKSEGRLKDDTVVSTVMSNLGFYKALEKEGIKSVQTAVGDRYVVEAMKKDGYNVGGEQSGHLIFLDYNTTGDGLLSAIMLMNTLKATGKPLSELAAEMQKF”, the protein production entry was “failed”.

Take “DEVENLYTQVADNEYLVQGRMLIDEFNEVFETDLHMSDVDTMAGYLITALGTIPDEGEKPSFEVGNIKLTAEEMEGTRLLVLRVHFYDEE”: the protein production result was “not failed”.

Consider “DGENYFIVDAHVALWDARRENQRNIHGKQFIDCFYDYHRNLSPASELWPYEDFLYQGGERLMKDLFTDGYVDHAIFQPAHLGAFYNTGFGQTEEAFALTRKHPGMLTYNHCFDPRFEEAGLKQLREDAARFGLKGVKLYTAEWKGDSRGYKLSDPWTYRYLDACRELGIKNIHVHKGPTIRPLDRDAFDVADVDAAASDFTDLNFVVEHCGLPRLEDFCWIATQEPNVHAGLAVAIPFMHTRPRYFAQIIGELLYWLDEDRIQFSSDYALWTPRWIVEQFVDFRIPDDMTGEYPQLTVAQKKKILGLNAAAMYDI”, for which the protein production entry is listed as “failed”.

Take “DIAARRHTGVIPTHHQFITNERFGDLLNIDDTAKRKSGSEMRPARAKFDFKAQTLKELPLQKGDIVYIYKQIDQNWYEGEHHGRVGIFPRTYIELLPPAEKAQPKKLTPVQVLEYGEAIAKFNFNGDTQVEMSFRKGERITLLRQVDENWYEGRIPGTSRQGIFPITYVDVIKRPLVKNPVDYMDLPF”: the protein production result is listed as “failed”.

Consider “DIMGFVFNTRRTLFKDKRVRQALSILFDFEWVNHHLFNNIYTRTEGYWDGSILSSIGKPASEEEKALLAPYPDAVLPEVMDGSWRISKTDGSGMDRLNAQKAWKLLQEAGFTKKNNRLIAPNGLPFQFEIMTQSLEEEKVALAFQSNLSRLGIHAEIRTVDDSQYQNRLGMFNYDMIIGKLKNSLSPGNEQINRWSSASRNLKGSFNFSGASDPAIDAMITAILDAHSQVDFIAAVRALDRILISGSYYIPLYHLS”, for which the protein production result is “not failed”.

As for “DITERKQAESALQESEARFQAFMNNSPSASWITDDHGRMLYLSQTYVRTFQLPFDKVEDVTGKTVFELYTPEVAQPFLDNIHRVAQTQQILETIEKAPRLDGTLGDFLVYKFPLPATT”, the protein production entry is given as “failed”.

Consider “DKITFKGDGDQSDPDGEPGDVVIVIQQKDHDIFKRDGDDLHMTKKLSLNEALCGYNFLIKHLDGHPLVLSSKQGDVIKPGVIRGVLGKGMPNKKYPELKGNLFVEFEVEFPKEHFLDDEKAYAVLK”, for which the protein production result was “not failed”.

Consider “DLEPRERLHRILEQVLVFAGAMVAAAYTHSEDGDQLCLAESAGVPRSLYGLRDSYPLTGGTPAADVHRSGQPLWLTPEDLGRCADARRLPNGDFSLAVLPLGDGGCLAAVSERAGGFDADDRECLRLLAGSVA”, for which the protein production entry was “failed”.

“DLSREADQALQEIVRQTQETAQMCLLNGRKYTVALMKEGERHFRISSNIGENAPIPWTASGRLLLGHLSDGQIVDLIDERDFVLPDGERLPLETFLKQIRQATEDGFFSFDSVADTFTHCFAAPVRDEHGVCICTLCIVAPRADAQRNYQQYRRVLIDSANRLARRIN”: the protein production entry is given as “failed”.

Consider “DNKELQKLTEDISETYFKKPFRHQALFNDRLKTTGGRYLLTSHNIELNRKYLIEHGREELIGIIKHELCHYHLHLEGKGYKHRDRDFRMLLQQVNAPRFCTPLKKKAENKKTYMYICTTCGQQYIKKRAMNPDRYRCGKCRGKIKRI”, for which the protein production entry was “not failed”.

As to “DPREVAGGYVEKLCARYGLADVRVVQSPAMGRGLTGELGNAGAALLEEVVKDGMTVGVSWGDTMLAVSEHLRTLPLVDVKVVQLKGGHSHTARNTNDMVTLTRFSRALNAEMMMLPLPVILDSKEAKELVVKDRHIASMLNLGAHCDVAVFTVGAVKSESLLLNLGYLSPSEQARLMEHAVGDVCSRFYDAQGEVADPDIDARTVGISLADLKKRPVRVLVAGGLEKAPAIEAALRTGVATHVVIDHATAQRVVEMA”, the protein production result is “failed”.

As for “DQPLAVAGDELAIADQTIDALSAQVEKLRHQQDLSLKQAELLTELSRANLSDIDEIQGVIQKNLDQARALFGCERLVFYYHPRYQPEAMVVQALDLTTQGLIDSKDPHPWGQEDMPSQIVAINDTSGASISNPHRQWLEQHQVKASLTVPLHRDNYPLGLLMAHHCQRPHQWEMRERQFLQQLTEELQTTLDRANLIQERNESAQQAQILKELTLKISAAIN”, the protein production entry was “failed”.

Regarding “DRTAILGGTFTPIHNGHRALLHKAFQTASHDGSGDGHVIVGLTSPELATETRSDPTHVKQLGAYDDRRSALASELDQLGEPYTATYEIVRLDDTQGPAATRADVDALVASPEAKAQRRAYELNQQRRESGLHPLEIHTPPFVVAEDGTRISSTRIRNGEIDVHGRLLD”, the protein production result is recorded as “failed”.

For the sequence “DRVLVPVANPNTEDNLLQLAIILTKSASGTLLPLHILLEENNPISPDAKAKQSQLLSTAEMIAHAAVVNVTPIGRIDESIDKGIARVAEEKQASAIICGWKGYSTYEENLFGGVIDKIVQRSFIPVLVSR”, the protein production entry is “failed”.

Take “DRVTLEVGKVIQQGRQSKGLTQKDLATKINEKPQVIADYESGRAIPNNQVLGKIERAIGLKLRGKDIGKPIEKGPRAK”: the protein production result is given as “not failed”.

With “DSIVEGRTLNVAVSPASPPMLFKSADGKLQGIDLELFSSYCQSRHCKLNITEYAWDGMLGAVASGQADVAFSGISITDKRKKVIDFSEPYYINSFYLVSMANHKITLNNLNELNKYSIGYPRGMAYSDLIKNDLEPKGYYSLSKVKLYPTYNETMADLKNGNLDLAFIEEPVYFTFKNKKKMPIESRYVFKNVDQLGIAFKKGSPVRDDFNLWLKEQGPQKISGIVDSWMK”, the protein production entry was “not failed”.

As to “DSRQRFKRQMVEQAAPWLLELSARTGLVTDLSSFDGESLEVLESAVPEVLRKRYPSNSRIVGQHASLFHSAMGKACLGALASAEVERLAEQEQVPAEARQQCLESQHLGFGQRTEGHWEYPVRLPFLIRAVALPLQAEGRVIGSIALHWPRDLACVEQVRNRHLWLLAETVERVQKDI”, the protein production result is listed as “failed”.

Regarding “DTMCLAIPGQVIEIREENGLKMGTVDISGALTKACLEYVPEIAIGQYTIVHAGFALKIIDEKEAAESLKLWDELIKSG”, the protein production entry is recorded as “not failed”.

As to “DYSQKLQNLISEQLVGCGFNEILNNSLTAASYYEGSETYKNENLVYLMNPLSNDLNVMRQTLLFGGLESIQHNANRKNADLKFFEFGNCYFYNAEKKNPEKVLAAYAEEYHLGLWVTGKRVSNSWAHPDENSSVYELKAYVLNIFTRLGLNFGNVVFGNLTNDIYSTAISVHTRGGKLLATFGIISKKIQKAFDIDNEVYYAEINWKELM”, the protein production result is reported as “not failed”.

Take “EAGTGRPVLILHGGGGPATVAPLAGHLARTAHTLVPTHPGWNGTPRPDRFAGVDDIALAYLRHLQDRGLRDVLVVGSSLGGWIGAELAARDDLGIITGLVLIDAVGIQVDGEPVRDFFALDARGVAEYSYHDPDRFYVDPADIPAGQLAARQANMATMRALAGDPYMHDPTLRGRLARVPVPTLVLWGESDRIVTPAYGRAYTDAFPDARFEVIPKAGHLPQLEQPEATFAAIDAYLAR”: the protein production entry is on record as “failed”.

Turning to “EARGFTAEDFALSHPGGALGRKLLLRVNDIMHTGDEIPHVGLQATLRDALLEITRKNLGMTAICDDDMNIIGIFTDGDLRRVFDTGVDMRDASIADVMTRGGIRIRPGTLAVDALNLMQSRHITCVLVADGDHLLGVVHMHDLLRA”, the protein production entry was “not failed”.

The values above are taken from a protein production outcome set (Wang et al. 2014).
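Further: failed if final PepcDB status was selected cloned or expressed and not failed if soluble or beyond.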
